“And” between values parts separate entries of the source, which are not always exact repeats. Equal entries are not always repeated.

In assay [1] the target is NP2 CC2 (construct consisting of only the CC2 region of NP2) (human) (UniProt P47972). Description: mass photometry; Two^MP, 200 nM NP, 10 mM Hepes-NaOH pH 7.4, 150 mM NaCl, with 3 mM CaCl2, 25 °C.
Assay [2] shares this target. The assay can be described thus: mass photometry; Two^MP, 200 nM NP, 10 mM Hepes-NaOH pH 7.4, 150 mM NaCl, without CaCl2, 25 °C.
The target of assay [3] is VHH N1 (alpaca). Description: ITC; iTC200; 50 μM NP2 PTX from the syringe into 5 μM VHH N1 in the cell; 10 mM Hepes-NaOH pH 7.4, 150 mM NaCl, 0 mM CaCl2, 25 °C. (In general: In ITC the heat of successive injections is recorded.)
For assay [4], the target named is T1, GluA4 ATD (amino-terminal domain of human GluA4), recombinant (human, UniProt P48058 21-402).
T1 construct: AMPA-type glutamate receptor subunit GluA4, human, amino-terminal domain (ATD); source: Expi293 cells, secreted, purified (Ni-NTA, SEC)
T1 sequence (looked up): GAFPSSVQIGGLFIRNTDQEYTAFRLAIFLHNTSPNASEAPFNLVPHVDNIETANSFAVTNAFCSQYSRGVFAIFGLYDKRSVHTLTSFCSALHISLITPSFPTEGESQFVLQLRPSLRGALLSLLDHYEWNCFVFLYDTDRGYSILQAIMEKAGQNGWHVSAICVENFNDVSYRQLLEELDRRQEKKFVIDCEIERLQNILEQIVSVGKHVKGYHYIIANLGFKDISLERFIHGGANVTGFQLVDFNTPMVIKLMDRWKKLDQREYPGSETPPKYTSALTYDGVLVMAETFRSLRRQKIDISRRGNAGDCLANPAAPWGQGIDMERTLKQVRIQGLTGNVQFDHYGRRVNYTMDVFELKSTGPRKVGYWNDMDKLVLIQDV
Description: SPR; Biacore T200; GluA4 ATD (~400 RU) amine-coupled on CM5, NP2 constructs as analytes (31.25-2000 nM NP2 N- and NP2 PTX, 62.5-4000 nM NP2 CC2); 10 mM Hepes-NaOH pH 7.4, 150 mM NaCl, 0.005% Tween-20, with 3 mM CaCl2. The conditions noted are these: both partners purified. (In SPR one partner is held on a chip, and binding of the other changes the refractive index at the surface.)

Assay [5] has as its target VHH N1 (alpaca). Description: ITC; iTC200; 50 μM NP2 PTX from the syringe into 5 μM VHH N1 in the cell; 10 mM Hepes-NaOH pH 7.4, 150 mM NaCl, 3 mM CaCl2, 25 °C.
The target of assay [6] is NP2 N- (neuronal pentraxin 2 in which CC1 was deleted) (human). The assay can be described thus: mass photometry; Two^MP; equal amounts of VHH N1 and NP2 N- or NP2 C95S, 200 nM each (as monomer); 10 mM Hepes-NaOH pH 7.4, 150 mM NaCl, without CaCl2, 25 °C.
Assay [7] addresses NP2 C95S (full-length NP2 with cysteine 95 mutated to serine) (human) (UniProt P47972). The assay is described as above.
Assay [8] addresses T2, NPR PTX (pentraxin domain of neuronal pentraxin receptor) (human, UniProt O95502).
T2 construct: neuronal pentraxin receptor (NPR, Nptxr), human, pentraxin (PTX) domain; also called PTX domain of NPR; source: Expi293 cells, secreted, purified (Ni-NTA, SEC)
Description: SPR; Biacore 8K; NP1 PTX or NPR PTX (~600 RU) amine-coupled on CM5, VHH N1 analyte 625-10,000 nM, multicycle kinetics; 10 mM Hepes-NaOH pH 7.4, 150 mM NaCl, 0.005% Tween-20, 3 mM CaCl2, 25 °C. The note with it: both partners purified.

Assay [9] addresses T3, NP1 PTX (pentraxin domain of neuronal pentraxin 1) (human, UniProt Q15818).
T3 construct: neuronal pentraxin 1 (NP1, Nptx1), human, pentraxin (PTX) domain; also called PTX domain of NP1; source: Expi293 cells, secreted, purified (Ni-NTA, SEC)
The description is as above. The note with it: both partners purified.

The target of assay [10] is NP2 N- (neuronal pentraxin 2 in which CC1 was deleted) (human). Description: SPR; Biacore 8K; NP2 N- (~800 RU) or NP2 PTX (~600 RU) amine-coupled on CM5, VHH N1 analyte 1.25-20 nM, single-cycle kinetics; 10 mM Hepes-NaOH pH 7.4, 150 mM NaCl, 0.005% Tween-20, 3 mM CaCl2, 25 °C.
Assay [11] concerns the target T4, NP2 PTX (pentraxin domain of neuronal pentraxin 2) (human) (UniProt P47972).
T4 sequence: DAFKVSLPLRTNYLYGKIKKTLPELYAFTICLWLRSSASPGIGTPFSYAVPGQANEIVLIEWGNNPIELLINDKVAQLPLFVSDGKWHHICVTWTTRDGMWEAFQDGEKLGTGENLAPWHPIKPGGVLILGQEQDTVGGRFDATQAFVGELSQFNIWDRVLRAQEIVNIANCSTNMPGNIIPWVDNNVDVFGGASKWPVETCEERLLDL
The description is as above.

Assay [12] concerns the target T5, HA-NP2 (HA-tagged mouse full-length NP2) (Mus musculus, UniProt O70340).
T5 construct: source: HEK293, transfected, in fixed cells; HEK293 tSA cells, cell supernatant; not shown: HA, N-terminal, kept
The assay can be described thus: immunostaining of cells or tissue; HEK293 cells expressing HA-tagged mouse NPs, fixed with 4% paraformaldehyde, permeabilized, stained with 1 μg/ml VHH N1, detected by rabbit anti-His; anti-HA as expression control. The conditions noted are these: one partner purified.

Assay [13] has as its target NP2 N- (neuronal pentraxin 2 in which CC1 was deleted) (human). Description: SPR; Biacore 8K; NP2 N- or NP2 PTX amine-coupled on CM5, VHH N1 analyte 5-80 nM, single-cycle kinetics; 10 mM Hepes-NaOH pH 7.4, 150 mM NaCl, 0.005% Tween-20, without CaCl2, 25 °C.
Assay [14] deals with T4, NP2 PTX (pentraxin domain of neuronal pentraxin 2) (human). The description is as above.
Assay [15] shares this target. The assay can be described thus: SPR; competition; Biacore T200; GluA4 ATD (~800 RU) amine-coupled on CM5, 500 nM NP2 PTX mixed with 0-1000 nM VHH N1 as analyte; 10 mM Hepes-NaOH pH 7.4, 150 mM NaCl, 3 mM CaCl2, 0.005% Tween-20.
A further assay addresses T6, NP2 PTX D407A (human, UniProt P47972, D407A).
T6 construct: neuronal pentraxin 2 (NP2, Nptx2), human, pentraxin (PTX) domain with D407A; also called D407A_(NP2 PTX); source: Expi293 cells, secreted, purified (same procedure as NP2 PTX WT)
Description: SPR; Biacore 8K; NP2 PTX single alanine mutants (~800 RU) amine-coupled on CM5, VHH N1 analyte 1.25-20 nM (D407A) or 62.5-1000 nM (V412A, W419A); 10 mM Hepes-NaOH pH 7.4, 150 mM NaCl, 0.005% Tween-20, 3 mM CaCl2. The note with it: both partners purified.

For assay [16], the target named is T7, NP2 N- (neuronal pentraxin 2 in which CC1 was deleted) (human).
T7 chain: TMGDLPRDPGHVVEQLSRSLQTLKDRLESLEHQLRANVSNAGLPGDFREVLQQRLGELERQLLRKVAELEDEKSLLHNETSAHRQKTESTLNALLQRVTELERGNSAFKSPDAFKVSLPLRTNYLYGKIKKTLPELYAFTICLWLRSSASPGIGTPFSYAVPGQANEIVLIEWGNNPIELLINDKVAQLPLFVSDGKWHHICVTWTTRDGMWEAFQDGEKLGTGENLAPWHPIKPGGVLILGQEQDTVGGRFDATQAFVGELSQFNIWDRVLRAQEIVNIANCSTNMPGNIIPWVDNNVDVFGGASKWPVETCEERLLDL
Description: mass photometry; Two^MP, 200 nM NP, 10 mM Hepes-NaOH pH 7.4, 150 mM NaCl, without CaCl2, 25 °C. The conditions noted are these: both partners purified.

Assay [17] concerns the target T7, NP2 N- (neuronal pentraxin 2 in which …). The assay can be described thus: mass photometry; Two^MP, 200 nM NP, 10 mM Hepes-NaOH pH 7.4, 150 mM NaCl, with 3 mM CaCl2, 25 °C. The note with it: both partners purified.

T3 sequence (Q15818 226-428): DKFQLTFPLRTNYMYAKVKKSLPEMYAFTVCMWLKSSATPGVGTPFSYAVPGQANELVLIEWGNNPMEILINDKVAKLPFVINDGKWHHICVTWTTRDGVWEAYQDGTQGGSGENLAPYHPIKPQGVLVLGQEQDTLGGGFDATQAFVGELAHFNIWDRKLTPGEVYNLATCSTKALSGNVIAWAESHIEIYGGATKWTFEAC
T2 sequence (O95502 292-494): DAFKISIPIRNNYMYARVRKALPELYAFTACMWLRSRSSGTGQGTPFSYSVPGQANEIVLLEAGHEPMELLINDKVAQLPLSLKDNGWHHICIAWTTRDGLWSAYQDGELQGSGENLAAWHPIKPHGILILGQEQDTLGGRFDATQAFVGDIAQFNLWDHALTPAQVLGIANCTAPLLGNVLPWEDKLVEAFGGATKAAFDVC

In the case of “NP2 CC2 (construct consisting of only the CC2 region of NP2) (from UniProt P47972 16-431) (domain or fragment)”, the stoichiometry N in [1] and in assay [2] was greater than 3 throughout.

B1: NP2 PTX (pentraxin domain of neuronal pentraxin 2) (domain or fragment, human)
chain: T4 sequence
notes: neuronal pentraxin 2 (NP2, Nptx2), human, pentraxin (PTX) domain; also called NP2 PTX WT; PTX domain of NP2; source: Expi293 cells, secreted, purified (Ni-NTA, SEC)
On to B1, for which, in the assay with VHH N1 (alpaca) [3], the Kd turned out to be 57.5 nM, the dH was -7.53 kcal/mol and the stoichiometry N was found to be 0.781. In addition, the Kd in assay [4] worked out at 13600 nM. In the assay with VHH N1 (alpaca) [5], this molecule registered a Kd of 19.7 nM, a dH of -7.36 kcal/mol and a stoichiometry N of 0.913.

B2: VHH N1 (VHH)
VHH: QLQLVESGGGLVQAGDSLKLSCIDSGSTFNLYAMGWFRQAPGKEREFVASISRGGGSSYYADSQLKGRFTISRDNAKNTVYLQMNSLKPEDTAVYYCNARAGRYDYWGQGTQVTVSS
notes: selected by phage display from an immune library of an alpaca immunized with NP2 N-; Cloned into the pRA2 vector with a C-terminal His-tag; detected by anti-His in the cell staining; also called N1 VHH; VHH for NP2; source: E. coli BL21 (DE3), purified (Ni-NTA, SEC); not shown: His-tag, C-terminal, kept
On to B2, for which the stoichiometry N in assay [6] and in [7] was 1 each time. Further, the binding result in [8] is “no binding (tested: 10,000 nM)”; in [9] it was “no binding (tested: 10,000 nM)”; in assay [12] it was “binds”. Also, the Kd in [10] was found to be 1.41 nM; in assay [11], 1.14 nM; in assay [13], 33.5 nM; in assay [14] it was 11.6 nM. Also, the koff in [10] worked out at 0.00524 s⁻¹; in assay [11], 0.00208 s⁻¹; in assay [13], 0.00514 s⁻¹; in assay [14] it was 0.0249 s⁻¹. For the same molecule, the kon in [10] came to 3.7e+06 M⁻¹ s⁻¹; in [11] it was 1.92e+06 M⁻¹ s⁻¹; in assay [13] it was 156000 M⁻¹ s⁻¹; in assay [14], 2.21e+06 M⁻¹ s⁻¹. For the same molecule, the IC50 in [15] amounted to 216 nM. Further, the “fold change of affinity against NP2 PTX WT” value with NP2 PTX D407A was 3 times lower.

B3: NP2 N- (neuronal pentraxin 2 in which CC1 was deleted) (domain or fragment)
chain: T7 chain
modifications: Exact start is not in the text (Figures 1B and S1); it is set by convention just after CC1 and its Cys95, keeping CC2, PTX and the native C-terminus. Human is inferred from the D407/V412/W419 …
On to B3, for which the “stoichiometry N” value in assay [16] was 6 and 3; in assay [17], 9 and 12.

As usually defined, the stoichiometry N is a count of units in the complex or per binding partner. The term Kd denotes the constant that tells how readily two partners part at equilibrium. Usually koff stands for the first-order rate constant of dissociation. Read a high koff as fast dissociation. In general, kon refers to the second-order rate constant of association. Read a high kon as fast association. As a reminder, the IC50 is the concentration at which inhibition is half-maximal. Lower therefore signals higher potency.
